Assay results from the DeepSol protein solubility set.

Experiment: soluble on expression in E. coli; label from the status in PepcDB or PDB records

Question: Which “soluble on expression in E. coli” value does the source give for “MRGSHHHHHHGSESETLTAKATITTTTLPSHDETKTESTEFEKNQKRYQDLISTFPHEKGWRPKEPLIEYGGYWWLPSLLEGCIHAQEFFQARPSDFLVCSYPKTGTTWLKALTFAIANRSRFDDSSNPLLKRNPHEFVPYIEIDFPFFPEVDVLKDKGNTLFSTHIPYELLPDSVVKSGCKMVYIWREPKDTFISMWTFLHKERTELGPVSNLEESFDMFCRGLSGYGPYLNHILAYWKAYQENPDRILFLKYETMRADPLPYVKSLAEFMGHGFTAEEEEKGVVEKVVNLCSFETLKNLEANKGEKDREDRPGVYANSAYFRKGKVGDWSNYLTPEMAARIDGLMEEKFKGTGLLEHGKKLN” here?
Answer: soluble

Question: For “MKRPDYRTLQALDAVIRERGFERAAQKLCITQSAVSQRIKQLENMFGQPLLVRTVPPRPTEQGQKLLALLRQVELLEEEWLGDEQTGSTPLLLSLAVNADSLATWLLPALAPVLADSPIRLNLQVEDETRTQERLRRGEVVGAVSIQHQALPSCLVDKLGALDYLFVSSKPFAEKYFPNGVTRSALLKAPVVAFDHLDDMHQAFLQQNFDLPPGSVPCHIVNSSEAFVQLARQGTTCCMIPHLQIEKELASGELIDLTPGLFQRRMLYWHRFAPESRMMRKVTDALLDYGHKVLRQD”, which “soluble on expression in E. coli” value is on record?
Answer: soluble

Question: For “MMEKSTLLQIKRDIETCVGQKIQLKANKGRKKAFIREGIVENTYPSIFVVKFENDYDTVRRVSYSYTDILTKAVEITVCEDNRKIQVS”, which “soluble on expression in E. coli” value is on record?
Answer: soluble

Question: With “MIAMIVKGGLAMAISNGHVSFKRPAWLGDSITANNGLATVHYHDILAADWDVERSDNLGISGSTIGSRYDAMAVRYQAIPEDADFIAVFGGVNDYGRDQPLGQYGDCDMTTFYGALMMLLTGLQTNWPTVPKLFISAIHIGSDFGGSFSAVTNGLGYRQSDYEAAIAQMTADYGVPHLSLYRDAGMTFAIPAQAAIYSVDTLHPNNAGHRVIARKLQSFLDSHFLEHHHHHH” as the sequence, how does the “soluble on expression in E. coli” value read?
Answer: soluble

Question: For “TLLPQVQVLSWDHYVASSPQIYEPSLMIVAQGSKLARLGPRTLEYGAGHYLVQALSVPFMCETFATREAPLLGVAVGIDRGVLGELVQSMGLAPDAEVQAQTPQSMTSAALDAPMRESVERLLHCLQDPLDAKVLGPARVREVLYTALRGPQAGVL”, which “soluble on expression in E. coli” value is on record?
Answer: not soluble

Question: With “MSLNNKGSGLTPAQALDKLDALYEQSVVALRNAIGNYITSGELPDENARKQGLFVYPSLTVTWDGSTTNPPKTRAFGRFTHAGSYTTTITRPTLFRSYLNEQLTLLYQDYGAHISVQPSQHEIPYPYVIDGSELTLDRSMSAGLTRYFPTTELAQIGDETADGIYHPTEFSPLSHFDARRVDFSLARLRHYTGTPVEHFQPFVLFTNYTRYVDEFVRWGCSQILDPDSPYIALSCAGGNWITAETEAPEEAISDLAWKKHQMPAWHLITADGQGITLVNIGVGPSNAKTICDHLAVLRPDVCYIGHCGGLRKVRPLADYVLAHAYLRDDHVLDAVLPPDIPIPSIAEVQRALYDATKLVSGRPGEEVKQRLRTGTVVTTDDRNWELRYSASALRFNLSRAVAIDMESATIAAQGYRFRVPYGTLLCVSDKPLHGEIKLPGQANRFYEGAISEHLQIGIRAIDLLRAEGDRLHSRKLRTFNEPPFREGHHHHHH” as the sequence, how does the “soluble on expression in E. coli” value read?
Answer: soluble

Question: Which “soluble on expression in E. coli” value does the source give for “VRSVQEHQRVVAEMMRACRPITVPLTQAQGLVLGGDVVAPLSLPVFDNSAMDGYAVRAEDTSGATPQNPVMLPVAEDIPAGRADMLTLQPVTAHRIMTGAPVPTGATAIVPVEATDGGVDSVAIRQQATPGKHIRRSGEDVAAGTTVLHNGQIVTPAVLGLAAALGLAELPVLPRQRVLVISTGSELASPGTPLQPGQIYESNSIMLAAAVRDAGAAVVATATAGDDVAQFGAILDRYAVDADLIITSGGVSAGAYEVVKDAFGSADYRGGDHGVEFVKVAMQPGMPQGVGRVAGTPIVTLPGNPVSALVSFEVFIRPPLRMAMGLPDPYRPHRSAVLTASLTSPRGKRQFRRAILDHQAGTVISYGPPASHHLRWLASANGLLDIPEDVVEVAAGTQLQVWDLT” here?
Answer: not soluble

Question: With “AIREFNTKEKVFNEFTAVFDVLNHLPAFAKLHLANSMSVRYANTLGISQRNAEVFANRGTSGIDGVISTAYGYALKTSQLVTIITGDLAFFYDRNAFWNNYKPSNLRVVLLNNHGGGIFRMIDGPSALPELDELFETKQTLSARYLATEHGLEYTLCKNLNGLNQALESFFQPSMFGKILEIETDSVKN” as the sequence, how does the “soluble on expression in E. coli” value read?
Answer: not soluble

Question: Which “soluble on expression in E. coli” value does the source give for “MENNVESNLQPVPMRYGDKRYYSWNQHLREQFGEKVFKVPLDAGFDCPNRDGNVASGGCTFCSERGSGDFAGDRKDDLVTQFHTIKERMHKKWTSGKYIGYFQAYTNTYAPVETLREYYEVILEQEGVVGLAIATRPDCLPDDVVEYLAELNKRTYLWVELGLQTVHERTALLINRAHDYQCYVDGVNKLRKHGIRVCSHIINGLPLENHQMMMETAKEVAKLDVQGIKIHSLHLLKRTPMVKQYEKGLVEFMSLEEYVNLVVDQLEVLPPHMIIHRLMGDGPGDLMIGPMWSMKKWEVLNAIEAELERRDSWQGKHYRAQVEVQ” here?
Answer: not soluble

Question: With “MPTFTLRPYTEADEDPAIALWLRTWQLAYPAIDFTKRVDWWRERWRTELVPQAAIIVAEQDSALIGFVTIDAVGYLDQLVVEPEHWGWGVAEALVDEAKQRSPTEVTLKVNADNYRAIKFYRRNGFAVTSEELNSSGRPVLNMLWRPA” as the sequence, how does the “soluble on expression in E. coli” value read?
Answer: not soluble

Question: With “MGSDKIHHHHHHARPQEKIKKKEISQSYSVSAGDRLQVENRYGNITVTHWNQNTVAIRVEVECKARSEERAQENLDRIQIETKKIGGIVSAVTTIKKEMNSNSNNESMTINYYIQMPPKLAADLNQKYGNINLPSDNNGNMDIHVKYGNLNAGNFTANAMIEAKYGNIEVGNLQDAQLDLGYVGTAKIRNAKDLTIDSKYSNLDIQDIQSLRMEIKYGNLTIESVSRLDMEIKYSDAKIGTLKDALNVSSLSYSNLKIRNLSPSFSKVNVESHYGNLEVALPAKTSFRIVAENMKYSSCDVNGFNITRKHFDDEDRDKNYTYEINGGKQPTIHFEGNRYGNLKVKAN” as the sequence, how does the “soluble on expression in E. coli” value read?
Answer: not soluble

Question: With “MSRPKAIVRHGKRDTIVALLGWAGAVDRNVEKYAGIYQKKGYTTVQFTALAAVKGWGTKDGRNVDHLASTLDSVLINPSNRLVFHVFSMNGFIALTSLDSQFPELKAIEKCDGIFMDSCPACFSFSIENMQKHALVMNHVYDQLIKNSNFVLGNFYKVYKKWETARFGYQMIMDTMSIKAGLCTIEEANPFFYLLNHPHLPPILTSIFSDNDIVCSADEINLFNECAAKKSDKKRQIMATRLKDTAHVEHFRKYPKLYLEKMDEFLQKVEKLRNGGNSKL” as the sequence, how does the “soluble on expression in E. coli” value read?
Answer: not soluble

Question: With “MSLSNDYPLVSIIIPTYNSSDYITETLTKLEKQTYPNFEIVIVNDGSKDNTSSVLREYGLTHSRLIIINKENGGVSSARNTGIRKAQGQFICFMDDDDEIDPNYLLKMYSRQHETGGDAIYCGLYGHHIKNGVTYSPINTDFNEGSLLFDFFYKKVRFHIGCLFIRKQLLEDNNLFFDEDLRLGEDLDFIYRLLITCDMYAVPYYMYKHNYRENSLMNSCRTITHYRHESFAHERIYSSVMQLYKGNRKEEIHTLLSKNRTYHKTRYLWNVLLNGDFELLNQLVESNEKELKDCNLLGKRDKRRAKILASKNYILWRMVRLVNRKKNKEGHHHHHH” as the sequence, how does the “soluble on expression in E. coli” value read?
Answer: soluble

Question: With “SLTDSAAPRLHVQALSADCAEAARRWAERLGLPLEADDEAEFAVQVGEQGLQVLQLGADSPGPVRVDFVEGASAHRRKFGGGSGQMIAKAVGVQPGIRPRVLDATAGLGQDGFVLASLGCEVTLVERQPLIAALLEDGLERARRDPDVAPIAARMRLLGGNSADLMRAWDGEAPQVIYLDPMFPHRDKSALVKKEMRLFRPLVGDDLDAPALLQAALALASHRVVVKRPRKAPIIEGPKPGYSLEGKSSRYDIYPKKALGK” as the sequence, how does the “soluble on expression in E. coli” value read?
Answer: soluble

Question: For “MSPANRVVQPYSKEDLAIQVSQLSGSRAAIWKALDSIDSWSYRVFDVQAAMSGDDYLSLSTQTHGGSLLITMYALLCMHDFLQKFKIDEQIALNWISAVEASYHGNPYHNSMHAADVLQITDFIITQGGLAKRCDLSDIQVFSALLAASIHDFDHPGINNNFHIKTGSYLATLYNDRSVLENLHVSSVFELMKNPAFNILASFSDEQHHEVRETMIEMVLATDMGSHGKYVASLKGKMQEHSSFTQTAEQNLCLAIALKMADISNCGRPLDIYLRWGAKVSDEFYQQGDRERNLGLECSPFMDRLQPSLAKSQIAFMNYIITPFFEQVAELLPDMRFAVALVEENKAYWANHDDS”, which “soluble on expression in E. coli” value is on record?
Answer: not soluble

Question: For “MGHHHHHHSHMAFCAILLVPSLCRMPSLPTSPWAFPVHWAGFMFKPLDWQGNDFFPPQDEVLAPLSWHKNTFKA”, which “soluble on expression in E. coli” value is on record?
Answer: not soluble
